Laboratory results published in US20220088117.

System: T1, Serp-1 (myxomavirus-derived serine protease inhibitor)
T1 sequence: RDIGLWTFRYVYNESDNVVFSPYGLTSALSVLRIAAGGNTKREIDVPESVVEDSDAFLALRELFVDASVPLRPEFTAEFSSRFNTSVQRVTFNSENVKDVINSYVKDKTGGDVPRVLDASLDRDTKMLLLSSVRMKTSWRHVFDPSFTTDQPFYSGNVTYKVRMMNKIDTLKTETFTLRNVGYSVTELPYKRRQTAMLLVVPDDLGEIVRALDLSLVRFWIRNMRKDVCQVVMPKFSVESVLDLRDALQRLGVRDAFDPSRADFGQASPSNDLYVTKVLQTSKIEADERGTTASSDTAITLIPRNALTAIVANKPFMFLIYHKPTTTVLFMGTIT

urokinase-type plasminogen activator (uPA)
uPA activity in an in vitro substrate conversion assay: Serp-1 inhibition of uPA activity in an in vitro substrate conversion assay is not affected by the presence of a broad-spectrum antibiotic cocktail
